Laboratory results taken from the supplement of paper PMC10567573.

B1: RAD51 (parent)
chain: RFLRMLLRLADEFGVAVVITNQVV

Variants of: B1
Experiment: protein stability index of a GFP-peptide fusion (GPS, HEK-293T) (PSI 1-6); higher = more stable
Settings: c terminus: a fixed tail appended
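Note: lentivirally expressed fusions sorted by FACS into six bins by GFP to DsRed ratio, PSI derived from sequencing read proportions per bin multiplied by bin number.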

Protein stability index: each site, then its substitutions
V15: P 3.13; R 2.32; L 2.06; M 1.56; F 2.82; I 2.51; N 2.31; C 3.16; Y 1.8; H 2.6; D 1.77; Q 3.05; S 3.16; E 2.08; G 1.98; A 1.79; W 2.43; K 2.75
R8: K 2.33; V 2.87; S 2.96; N 1.78; I 3.12; H 3.25; Q 2.09; C 2.36; D 2.57; G 1.46; A 1.42; W 1.83; M 2.17; L 3.02; F 2.47
F13: R 2.34; N 1.26; S 1.59; M 2.21; K 2.2; T 1.97; Y 1.72; L 2.56; W 3.5; A 1.3; E 2.74; P 1.25; D 3.29; Q 1.61; H 1.86; G 2.04
D11: I 2.43; R 2.85; L 2.46; N 1.66; P 1.85; S 2.32; V 2.46; E 1.97; A 3.02; K 3.43; C 2.06; T 2.51; Y 3.81
E12: F 3.25; Q 3.13; D 2.48; V 1.94; I 3.64; G 1.3; L 2.75; S 2.08; N 1.68; C 3.13; K 2.42; P 2.01; M 2.33; T 1.46; H 3.24; A 2.02; R 3.5
A16: M 3.12; C 1.43; H 3.12; P 1.08; K 2.4; I 2.24; R 2.25; N 3.11; L 2.2; Q 1.87; S 2.34; D 3.29; F 1.55
L7: Q 2.34; C 2.54; A 1.25; G 3.06; D 1.3; E 2.69; K 1.98; W 1.94; N 1.71; S 1.6; R 1.49; F 2.04; P 2.49; I 2.79; V 2.15; T 2.6; M 1.55; Y 2.13; H 2.34
A10: Q 1.82; S 1.65; Y 3.62; P 2.33; R 1.65; T 3.2; V 1.95; L 3.03; D 1.97; I 3.61; K 2.9; F 2.21; H 1.64; N 2.58; E 2.5; C 1.79; M 3.27
G14: A 2.83; V 2.18; P 1.33; D 2.97; E 1.92; R 2.06; K 1.96; T 1.94; F 4.07; Q 1.69; Y 3.29; N 2.03; L 3.4; C 2.4; M 1.74; H 1.82; S 1.53
L9: R 1.7; Q 2.88; N 2.37; E 1.65; G 3.55; V 2.38; T 2.51; S 1.76; F 1.76; K 1.98; I 2.52; Y 2.89; P 3.32; M 1.54; D 2.1
L6: W 2.54; R 2.89; Y 3.5; V 2.54; T 3.04; Q 4.57; S 3.28
